The labels stand for the following.
B1: Azoarcus group I ribozyme (parent)
chain: GUGCCUUGCGCCGGGAAACCACGCAAGGGAUGGUGUCAAAUUCGGCGAAACCUAAGCGCCCGCCCGGGCGUAUGGCAACGCCGAGCCAAGCUUCGGCGCCUGCGCCGAUGAAGGUGUAGAGACUAGACGGCACCCACCUAAGGCAAACGCUAUGGUGAAGGCAUAGUCCAGGGAGUGGCGAAAGUCACACAAACCGG

In this data set the parent is B1. As to the kind of experiment: reverse-splicing fitness (ratio to wild type); higher = more active; in vitro selection; Mg2+ level not given. Put shortly: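 An in vitro group I ribozyme library with randomized positions was T7-transcribed and gel-purified. In triplicate, 10 pmol RNA in EPPS pH 7.5 was reacted with 50 pmoles of a 30-nt RNA substrate for 1 h at 37 °C across several added MgCl2 levels (1–48 mM), then stopped with EDTA. Products were reverse transcribed from a substrate-complementary primer, PCR-amplified and sequenced (HiSeq 4000). Fitness is a variant's read proportion after selection over that before, normalised to wild type.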
GUGCCUUGCGCCGGGAAACCACGCAAGGGAUGGUGUCAAAUUCGGCGAAACCUAAGCGCCCGCCCGGGCGUAUGGCAACGCCGAGCCAAGCUUCGGCGCCUGCGCCGAUGUAGGUGUAGAGACUAGACGGCACCCACCUAAGGCAAACGCUAUGGUGAAGGCAUAGUCCAGGGAGAGGCGAAAGUCACACAAACCGG: the reverse-splicing fitness is 0.823. For GUGCCUUGCGCCGGGAAACCACGCAAGGGAUGGUGUCAAAUUCGGCGAAACCUAAGCGCCCGCCCGGGCGUAUGGCAACGCGGAGCCAAGCUUCGGCGCCUGCGCCGAUGGAGGUGUAGAGACUAGACGGCACCCACCUAAGGCUAACGCUAUGGUGAAGGCAUAGUCUAGGGAGAGGCGAAAGUCACACAAACCGG the value was 0.0142; for GUGCCUUGCGCCGGGAAACCACGCAAGGGAUGGUGUCAAAUUCGGCGAAACCUAAGCGCCCGCCCGGGCGUAUGGCAACGCGGAGCCAAGCUUCGGCGCCUGCGCCGAUGCAGGUGUAGGGACUAGACGGCACCCACCUAAGGCCAACGUUAUGGUGAAGGCAUAGUCAAGGGAGAGGCGAAAGUCACACAAACCGG, 0.0113. Turning to GUGCCUUGCGCCGGGAAACCACGCAAGGGAUGGUGUCAAAUUCGGCGAAACCUAAGCGCCCGCCCGGGCGUAUGGCAACGCCGAGCCAAGCUUCGGCGCCUGCGCCGAUGAAGGUGUAGUGACUAGACGGCACCCACCUAAGGCUAACGAUAUGGUGAAGGCAUAGUCAAGGGAGGGGCGAAAGUCACACAAACCGG, the reverse-splicing fitness was found to be 0.00156. With GUGCCUUGCGCCGGGAAACCACGCAAGGGAUGGUGUCAAAUUCGGCGAAACCUAAGCGCCCGCCCGGGCGUAUGGCAACGCCGAGCCAAGCUUCGGCGCCUGCGCCGAUGGAGGUGUAGCGACUAGACGGCACCCACCUAAGGCCAACGAUAUGGUGAAGGCAUAGUCGAGGGAGUGGCGAAAGUCACACAAACCGG, the reverse-splicing fitness was found to be 0.00815. For GUGCCUUGCGCCGGGAAACCACGCAAGGGAUGGUGUCAAAUUCGGCGAAACCUAAGCGCCCGCCCGGGCGUAUGGCAACGCCGAGCCAAGCUUCGGCGCCUGCGCCGAUGAAGGUGUAGCGACUAGACGGCACCCACCUAAGGCUAACGAUAUGGUGAAGGCAUAGUCUAGGGAGUGGCGAAAGUCACACAAACCGG the value was 0.0832. As to GUGCCUUGCGCCGGGAAACCACGCAAGGGAUGGUGUCAAAUUCGGCGAAACCUAAGCGCCCGCCCGGGCGUAUGGCAACGCCGAGCCAAGCUUCGGCGCCUGCGCCGAUGAAGGUGUAGUGACUAGACGGCACCCACCUAAGGCAAACGUUAUGGUGAAGGCAUAGUCAAGGGAGAGGCGAAAGUCACACAAACCGG, the reverse-splicing fitness came out at 0.0051.

For GUGCCUUGCGCCGGGAAACCACGCAAGGGAUGGUGUCAAAUUCGGCGAAACCUAAGCGCCCGCCCGGGCGUAUGGCAACGCCGAGCCAAGCUUCGGCGCCUGCGCCGAUGGAGGUGUAGCGACUAGACGGCACCCACCUAAGGCUAACGUUAUGGUGAAGGCAUAGUCCAGGGAGAGGCGAAAGUCACACAAACCGG, the reverse-splicing fitness is 0.365. As for GUGCCUUGCGCCGGGAAACCACGCAAGGGAUGGUGUCAAAUUCGGCGAAACCUAAGCGCCCGCCCGGGCGUAUGGCAACGCAGAGCCAAGCUUCGGCGCCUGCGCCGAUGGAGGUGUAGGGACUAGACGGCACCCACCUAAGGCAAACGGUAUGGUGAAGGCAUAGUCCAGGGAGCGGCGAAAGUCACACAAACCGG, the figure is 0.00974; as for GUGCCUUGCGCCGGGAAACCACGCAAGGGAUGGUGUCAAAUUCGGCGAAACCUAAGCGCCCGCCCGGGCGUAUGGCAACGCCGAGCCAAGCUUCGGCGCCUGCGCCGAUGAAGGUGUAGGGACUAGACGGCACCCACCUAAGGCCAACGAUAUGGUGAAGGCAUAGUCAAGGGAGGGGCGAAAGUCACACAAACCGG, 0.00472. Turning to GUGCCUUGCGCCGGGAAACCACGCAAGGGAUGGUGUCAAAUUCGGCGAAACCUAAGCGCCCGCCCGGGCGUAUGGCAACGCGGAGCCAAGCUUCGGCGCCUGCGCCGAUGUAGGUGUAGUGACUAGACGGCACCCACCUAAGGCCAACGUUAUGGUGAAGGCAUAGUCUAGGGAGUGGCGAAAGUCACACAAACCGG, the reverse-splicing fitness came out at 0.00298.

On to GUGCCUUGCGCCGGGAAACCACGCAAGGGAUGGUGUCAAAUUCGGCGAAACCUAAGCGCCCGCCCGGGCGUAUGGCAACGCGGAGCCAAGCUUCGGCGCCUGCGCCGAUGUAGGUGUAGGGACUAGACGGCACCCACCUAAGGCCAACGUUAUGGUGAAGGCAUAGUCAAGGGAGCGGCGAAAGUCACACAAACCGG, for which the reverse-splicing fitness amounted to 0.0083. As for GUGCCUUGCGCCGGGAAACCACGCAAGGGAUGGUGUCAAAUUCGGCGAAACCUAAGCGCCCGCCCGGGCGUAUGGCAACGCAGAGCCAAGCUUCGGCGCCUGCGCCGAUGCAGGUGUAGUGACUAGACGGCACCCACCUAAGGCCAACGCUAUGGUGAAGGCAUAGUCCAGGGAGGGGCGAAAGUCACACAAACCGG, the reverse-splicing fitness is 0.00266.

Turning to GUGCCUUGCGCCGGGAAACCACGCAAGGGAUGGUGUCAAAUUCGGCGAAACCUAAGCGCCCGCCCGGGCGUAUGGCAACGCGGAGCCAAGCUUCGGCGCCUGCGCCGAUGAAGGUGUAGUGACUAGACGGCACCCACCUAAGGCUAACGGUAUGGUGAAGGCAUAGUCGAGGGAGUGGCGAAAGUCACACAAACCGG, the reverse-splicing fitness was 0.00287. As for GUGCCUUGCGCCGGGAAACCACGCAAGGGAUGGUGUCAAAUUCGGCGAAACCUAAGCGCCCGCCCGGGCGUAUGGCAACGCGGAGCCAAGCUUCGGCGCCUGCGCCGAUGCAGGUGUAGUGACUAGACGGCACCCACCUAAGGCAAACGGUAUGGUGAAGGCAUAGUCAAGGGAGCGGCGAAAGUCACACAAACCGG, the figure is 0.0071; as for GUGCCUUGCGCCGGGAAACCACGCAAGGGAUGGUGUCAAAUUCGGCGAAACCUAAGCGCCCGCCCGGGCGUAUGGCAACGCAGAGCCAAGCUUCGGCGCCUGCGCCGAUGUAGGUGUAGCGACUAGACGGCACCCACCUAAGGCUAACGGUAUGGUGAAGGCAUAGUCGAGGGAGAGGCGAAAGUCACACAAACCGG, 0.00986; as for GUGCCUUGCGCCGGGAAACCACGCAAGGGAUGGUGUCAAAUUCGGCGAAACCUAAGCGCCCGCCCGGGCGUAUGGCAACGCCGAGCCAAGCUUCGGCGCCUGCGCCGAUGCAGGUGUAGGGACUAGACGGCACCCACCUAAGGCUAACGAUAUGGUGAAGGCAUAGUCCAGGGAGAGGCGAAAGUCACACAAACCGG, 0.0126. For GUGCCUUGCGCCGGGAAACCACGCAAGGGAUGGUGUCAAAUUCGGCGAAACCUAAGCGCCCGCCCGGGCGUAUGGCAACGCUGAGCCAAGCUUCGGCGCCUGCGCCGAUGAAGGUGUAGGGACUAGACGGCACCCACCUAAGGCCAACGCUAUGGUGAAGGCAUAGUCGAGGGAGGGGCGAAAGUCACACAAACCGG the value was 0.00391; for GUGCCUUGCGCCGGGAAACCACGCAAGGGAUGGUGUCAAAUUCGGCGAAACCUAAGCGCCCGCCCGGGCGUAUGGCAACGCAGAGCCAAGCUUCGGCGCCUGCGCCGAUGCAGGUGUAGCGACUAGACGGCACCCACCUAAGGCGAACGAUAUGGUGAAGGCAUAGUCGAGGGAGAGGCGAAAGUCACACAAACCGG, 0.0172.

Consider GUGCCUUGCGCCGGGAAACCACGCAAGGGAUGGUGUCAAAUUCGGCGAAACCUAAGCGCCCGCCCGGGCGUAUGGCAACGCUGAGCCAAGCUUCGGCGCCUGCGCCGAUGCAGGUGUAGCGACUAGACGGCACCCACCUAAGGCGAACGGUAUGGUGAAGGCAUAGUCGAGGGAGAGGCGAAAGUCACACAAACCGG, for which the reverse-splicing fitness came to 0.00967. On to GUGCCUUGCGCCGGGAAACCACGCAAGGGAUGGUGUCAAAUUCGGCGAAACCUAAGCGCCCGCCCGGGCGUAUGGCAACGCUGAGCCAAGCUUCGGCGCCUGCGCCGAUGUAGGUGUAGCGACUAGACGGCACCCACCUAAGGCGAACGCUAUGGUGAAGGCAUAGUCCAGGGAGUGGCGAAAGUCACACAAACCGG, for which the reverse-splicing fitness was determined as 0.03. As for GUGCCUUGCGCCGGGAAACCACGCAAGGGAUGGUGUCAAAUUCGGCGAAACCUAAGCGCCCGCCCGGGCGUAUGGCAACGCUGAGCCAAGCUUCGGCGCCUGCGCCGAUGGAGGUGUAGGGACUAGACGGCACCCACCUAAGGCCAACGCUAUGGUGAAGGCAUAGUCUAGGGAGUGGCGAAAGUCACACAAACCGG, the figure is 0.00954; as for GUGCCUUGCGCCGGGAAACCACGCAAGGGAUGGUGUCAAAUUCGGCGAAACCUAAGCGCCCGCCCGGGCGUAUGGCAACGCAGAGCCAAGCUUCGGCGCCUGCGCCGAUGGAGGUGUAGAGACUAGACGGCACCCACCUAAGGCAAACGUUAUGGUGAAGGCAUAGUCAAGGGAGCGGCGAAAGUCACACAAACCGG, 0.0164.

GUGCCUUGCGCCGGGAAACCACGCAAGGGAUGGUGUCAAAUUCGGCGAAACCUAAGCGCCCGCCCGGGCGUAUGGCAACGCUGAGCCAAGCUUCGGCGCCUGCGCCGAUGCAGGUGUAGCGACUAGACGGCACCCACCUAAGGCCAACGGUAUGGUGAAGGCAUAGUCGAGGGAGUGGCGAAAGUCACACAAACCGG: the reverse-splicing fitness amounted to 0.00681. For GUGCCUUGCGCCGGGAAACCACGCAAGGGAUGGUGUCAAAUUCGGCGAAACCUAAGCGCCCGCCCGGGCGUAUGGCAACGCUGAGCCAAGCUUCGGCGCCUGCGCCGAUGUAGGUGUAGCGACUAGACGGCACCCACCUAAGGCGAACGUUAUGGUGAAGGCAUAGUCCAGGGAGCGGCGAAAGUCACACAAACCGG the value was 0.0214; for GUGCCUUGCGCCGGGAAACCACGCAAGGGAUGGUGUCAAAUUCGGCGAAACCUAAGCGCCCGCCCGGGCGUAUGGCAACGCUGAGCCAAGCUUCGGCGCCUGCGCCGAUGCAGGUGUAGCGACUAGACGGCACCCACCUAAGGCAAACGUUAUGGUGAAGGCAUAGUCAAGGGAGCGGCGAAAGUCACACAAACCGG, 0.0151. As for GUGCCUUGCGCCGGGAAACCACGCAAGGGAUGGUGUCAAAUUCGGCGAAACCUAAGCGCCCGCCCGGGCGUAUGGCAACGCCGAGCCAAGCUUCGGCGCCUGCGCCGAUGGAGGUGUAGGGACUAGACGGCACCCACCUAAGGCUAACGAUAUGGUGAAGGCAUAGUCUAGGGAGUGGCGAAAGUCACACAAACCGG, the figure is 0.0268; as for GUGCCUUGCGCCGGGAAACCACGCAAGGGAUGGUGUCAAAUUCGGCGAAACCUAAGCGCCCGCCCGGGCGUAUGGCAACGCUGAGCCAAGCUUCGGCGCCUGCGCCGAUGAAGGUGUAGAGACUAGACGGCACCCACCUAAGGCAAACGUUAUGGUGAAGGCAUAGUCAAGGGAGGGGCGAAAGUCACACAAACCGG, 0.00561; as for GUGCCUUGCGCCGGGAAACCACGCAAGGGAUGGUGUCAAAUUCGGCGAAACCUAAGCGCCCGCCCGGGCGUAUGGCAACGCAGAGCCAAGCUUCGGCGCCUGCGCCGAUGAAGGUGUAGUGACUAGACGGCACCCACCUAAGGCUAACGAUAUGGUGAAGGCAUAGUCCAGGGAGCGGCGAAAGUCACACAAACCGG, 0.0092. As for GUGCCUUGCGCCGGGAAACCACGCAAGGGAUGGUGUCAAAUUCGGCGAAACCUAAGCGCCCGCCCGGGCGUAUGGCAACGCAGAGCCAAGCUUCGGCGCCUGCGCCGAUGUAGGUGUAGAGACUAGACGGCACCCACCUAAGGCCAACGUUAUGGUGAAGGCAUAGUCGAGGGAGCGGCGAAAGUCACACAAACCGG, the reverse-splicing fitness is 0.0141.

The values are drawn from the RNAGym collection of RNA variant scans (doi:10.1093/molbev/msab373).
